Reference: publication PMC2788528

Target: CEACAM3 WT-HA-CyPet, tyrosine-phosphorylated (coexpressed with v-Src) (UniProt P40198)
Test: FRET or BRET; flow cytometric FRET in intact cotransfected 293T cells (with or without v-Src); CyPet and YPet double-positive cells gated; FRET channel excitation 405 nm, emission 525/50 nm; LSR II

UniProt P40198, sequence (P40198 35-252): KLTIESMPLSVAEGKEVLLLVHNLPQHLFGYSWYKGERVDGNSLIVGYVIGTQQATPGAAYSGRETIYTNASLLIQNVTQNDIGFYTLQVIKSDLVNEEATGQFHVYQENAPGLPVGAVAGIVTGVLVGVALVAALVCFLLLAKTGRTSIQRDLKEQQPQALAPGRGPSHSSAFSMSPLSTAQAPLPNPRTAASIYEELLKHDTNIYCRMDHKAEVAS

YPet-Hck-SH2 (SH2 domain of human Hck fused to YPet) (from UniProt P08631 144-241) (domain or fragment)
fold increase in the mean fluorescence intensity in the FRET channel: 4 fold
